Measurements taken from patent US20030143696A1.

Molecular target: Soluble human VCAM-1 IgG fusion protein (immobilized on coverslips) (human) (UniProt P19320)
Test: cell-based or functional assay

Chain of UniProt P19320 (P19320 25-698 limits assumed): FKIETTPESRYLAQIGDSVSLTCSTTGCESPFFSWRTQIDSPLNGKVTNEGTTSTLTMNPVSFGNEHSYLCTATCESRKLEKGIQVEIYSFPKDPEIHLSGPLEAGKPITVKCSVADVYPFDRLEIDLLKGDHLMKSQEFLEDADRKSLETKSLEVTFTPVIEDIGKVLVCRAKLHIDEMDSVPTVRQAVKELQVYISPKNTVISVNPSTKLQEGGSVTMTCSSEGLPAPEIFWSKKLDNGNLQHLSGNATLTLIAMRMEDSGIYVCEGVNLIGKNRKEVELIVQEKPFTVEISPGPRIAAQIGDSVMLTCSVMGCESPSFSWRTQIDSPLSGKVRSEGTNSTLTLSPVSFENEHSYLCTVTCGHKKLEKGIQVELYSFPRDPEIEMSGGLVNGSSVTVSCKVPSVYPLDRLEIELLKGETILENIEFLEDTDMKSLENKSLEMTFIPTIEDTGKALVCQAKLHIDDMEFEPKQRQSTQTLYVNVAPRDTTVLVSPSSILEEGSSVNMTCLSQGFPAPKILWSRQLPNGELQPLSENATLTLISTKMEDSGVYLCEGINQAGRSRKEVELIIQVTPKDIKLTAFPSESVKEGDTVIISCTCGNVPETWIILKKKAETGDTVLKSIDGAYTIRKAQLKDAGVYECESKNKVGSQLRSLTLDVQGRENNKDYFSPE

memory CD4+ T cell accumulation on immobilized VCAM-1 under flow; inhibition by pretreatment with CKβ-13: 42 to 72%
Substance: VLA-4 integrin (on CD4+ naive and memory T cells) (from UniProt P13612 34-1032; P05556 21-798) (receptor)
